These results are taken from the RNAGym collection of RNA variant scans (doi:10.1073/pnas.2313332121).

Variants at the floor of the assay were thinned out.

First the molecules themselves.
B1: TPR 5TU (parent)
chain: GGAUCUUCUCGAUCUAACAAAAAAGACAAAUCUGCCACAAAGCUUGAGAGCAUCUUCGGAUGCAGAGGCGGCAGCCUUCGGUGGCGCGAUAGCGCCAACGUUCUCAACUAUGACACGCAAAACGCGUGCUCCGUUGAAUGGAGUUUAUCAUG

The data set covers variants of B1. The experiment in a line: polymerase ribozyme fitness, log enrichment relative to wild type (log ratio); higher = more active; in vitro selection for triplet polymerase activity. In short, it runs like this: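 Mutant libraries of both subunits of a heterodimeric triplet polymerase ribozyme were PCR-built, transcribed, and selected once in triplicate, with frozen incubation at −7 °C and capture of gel-excised extended constructs on streptavidin beads before RT-PCR. Illumina sequencing of input and output libraries was filtered to genotypes with ≥10 input reads and ≥1 read per output. Fitness is the logarithm of genotype enrichment over wild-type enrichment, using inverse-variance-weighted replicate averages. The logarithm is base 2.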
U56A G59U C63G C87U: the “polymerase ribozyme fitness (log ratio)” value came to 1.72. Next, U56A A113U: -1.87; U56C C93U C114G A119G: -3.79; U55A A60U U101G: -0.433. Next, U55C C93G: -3.57; C57G C69G U101G C118U: -2.81; U55A A64G G84A C93G A137G A142U: at most -4.2. For the variant C54U U61A A106G G152C, the “polymerase ribozyme fitness (log ratio)” value is at most -4.2.

Take U55G A98G: the “polymerase ribozyme fitness (log ratio)” value was -0.84. For C57A A107C C125A G133A G136A U151A, the “polymerase ribozyme fitness (log ratio)” value was at most -4.2. The result for U55A A115U U127G U135A U145A reads -1.32. The result for U55G C75G C76G G84U C118A U139C reads at most -4.2. The result for C57A C96U C108U G140A reads at most -4.2; that for U55G G83U C95U A147C, -1.88; that for U55A U56A A66C G70C C108U, at most -4.2. U56C G133U: the “polymerase ribozyme fitness (log ratio)” value was -4.01. As to C57A A91G U101A A142G, the “polymerase ribozyme fitness (log ratio)” value is -4.08. The result for U56A A73G C76U reads 0.764; that for U56G G81A U104C U145C, -1.47. The result for U55A U101G A107G A138C G141A reads at most -4.2; that for U55G C87U G92A U101G G143U, -3.33; that for U55G G83C U135A G136A C149A, at most -4.2. Take U56A U101G: the “polymerase ribozyme fitness (log ratio)” value stood at 0.0793. The result for U55A G94U G117U C131A G136A reads at most -4.2; that for U55A A121C, -0.369.

With U56G A97C, the “polymerase ribozyme fitness (log ratio)” value was -1.65. Take U56A C72U C76U C85U: the “polymerase ribozyme fitness (log ratio)” value was -1.17. For the variant U56A G58U A119G C131A, the “polymerase ribozyme fitness (log ratio)” value is -2.04. The result for U56G G71C C123G reads -3.58; that for U56C C85G U135C A142U G152A, at most -4.2. The result for U55A A60C G62A G81A C85U G133C reads at most -4.2; that for C54U U151C, -3.65. Next, U55G G80A C87U: -0.574; U56A U130A: -2.03; C57A U146A: -0.0166.

On to C57G G71U C72G G84U G133U A137U, for which the “polymerase ribozyme fitness (log ratio)” value was at most -4.2. The result for U56A C69A reads -1.46; that for U55A C87A C108G, at most -4.2; that for U55G C108G, at most -4.2. As to U56G G59A, the “polymerase ribozyme fitness (log ratio)” value is -1.14. The result for U55G G68A reads -3.69; that for U55G G68U, -3.91. The result for U56A A89G reads -2.69; that for U56G G58A C63G U101G A120U, -2.56.

Turning to U55G C118U, the “polymerase ribozyme fitness (log ratio)” value was -1.23. U56C C93U U101G C103U G136C: the “polymerase ribozyme fitness (log ratio)” value was -4.09. The result for C57G C103G reads -2.16; that for U55G G86U A89G A121C A147U, -3; that for U56A C93U A147G, -1.96.

On to C57G A73G C116U, for which the “polymerase ribozyme fitness (log ratio)” value was -0.324.

In the case of C57G G84A, the “polymerase ribozyme fitness (log ratio)” value is -0.518. Next, C57G G84U: -1.79; U56A U77C: -2.93; U56G C75G C93U: -4.19. Next, U55A A107C: at most -4.2. Regarding U55A A91G, the “polymerase ribozyme fitness (log ratio)” value was -2.86. The result for U55G A60G G133U G136C reads at most -4.2; that for U56G U151C, at most -4.2.

For U55A U148C, the “polymerase ribozyme fitness (log ratio)” value was -1.05. As for U55A G58C A97G, the “polymerase ribozyme fitness (log ratio)” value came to 0.512. Next, C54U U78G C96G A113U: at most -4.2. The result for C57G C87A U144C reads -3.75; that for U55A G92A C125A, -3.46; that for C57G C75U G86A A91C, at most -4.2.

Regarding U55A G81A G86A U109G A150G, the “polymerase ribozyme fitness (log ratio)” value was at most -4.2. The result for C57G A115U U145A reads -1.54. Next, U55G A91U A106G G117U: -4.18.

Consider C57A G58U C76A C85U C96U A147G, for which the “polymerase ribozyme fitness (log ratio)” value is -3.03. With U55C U61A U82A, the “polymerase ribozyme fitness (log ratio)” value is -2.36. The result for C57A U61A C95U A97U A115U U144C reads at most -4.2. As to U56A G68C U77A C96G U104G C108U G141C, the “polymerase ribozyme fitness (log ratio)” value is at most -4.2.

Turning to U55G G59A G83A A98C C116G U127G, the “polymerase ribozyme fitness (log ratio)” value was -4.04. Next, U55A G67C C85A G86U G124U: at most -4.2; C57G C93A: -2.2; C57G C93G: -4.06. Take C54U U55A: the “polymerase ribozyme fitness (log ratio)” value is -0.284.

Turning to U55A C149U, the “polymerase ribozyme fitness (log ratio)” value is -1.55.

As to U55A U146G, the “polymerase ribozyme fitness (log ratio)” value was -0.637.

Regarding U55A U146A, the “polymerase ribozyme fitness (log ratio)” value is -0.393. In the case of U56G G59U C87A, the “polymerase ribozyme fitness (log ratio)” value was at most -4.2. The result for U55A C79U reads -2.74.

Take U56A U78A A121C: the “polymerase ribozyme fitness (log ratio)” value was at most -4.2.

In the case of U56G A142U, the “polymerase ribozyme fitness (log ratio)” value is -0.88. In the case of U55A A89G, the “polymerase ribozyme fitness (log ratio)” value is -1.16. Next, U55A A89C: -0.409; U55G G67C U78G G83U C93A U102A A121C: at most -4.2. The result for U56G U148G reads -3.89; that for U55A U77G U134C U139C, at most -4.2. Next, U55C G62A A64C C72G G140U U144A: at most -4.2; U56A U145G: -0.287. On to U56A C57A C85U C87U U144A U146G, for which the “polymerase ribozyme fitness (log ratio)” value is at most -4.2. Next, U55A C79U C85U: -3.3. Next, C57G C93U A115U: -3.44; C57A C72U C99A C103G G140C: at most -4.2; C57A C69A U127A: at most -4.2. As to U55A C85U C103U, the “polymerase ribozyme fitness (log ratio)” value was -0.7. The result for C57G C96G U104G reads -4.16; that for U55G U61G C76U C87A U101G U134G G136U, at most -4.2. Turning to U56G A66C G81A C87U G117A, the “polymerase ribozyme fitness (log ratio)” value was at most -4.2. Next, U55A U61C G94U: at most -4.2. Turning to U56C U102G A142G, the “polymerase ribozyme fitness (log ratio)” value was -3.95. Next, C57A G62A G86A A113G A120U U127C G136A A142C: at most -4.2; U55A C95U C105A C108G: at most -4.2. The result for U55A A66U C79U G80C C87G C116U U145G reads at most -4.2; that for U55A G84U A113C, -3.62. The result for C57A G86U reads -1.32; that for U56G A91G, -3.24.

Turning to U56A C75A G141A, the “polymerase ribozyme fitness (log ratio)” value was at most -4.2. Regarding U55A U139A, the “polymerase ribozyme fitness (log ratio)” value is -4.05. Regarding U55A C63U A142U, the “polymerase ribozyme fitness (log ratio)” value was -0.552.

For the variant U55A G58U C93G, the “polymerase ribozyme fitness (log ratio)” value is -3.78. Next, U56A G81U U101G: -0.889; C54U U56A G133C: -1.7; U55A C63U C85U C105U: 0.719.

Consider U56G A60C G81A G94U A106G, for which the “polymerase ribozyme fitness (log ratio)” value is -3.84.

As for U56A U82G C87G A91C, the “polymerase ribozyme fitness (log ratio)” value is at most -4.2. Next, U55A C93G G143A: -3.93; U55C A98G A113U A142G: -2.98; U56G G84U: -2.16.

U55A C85A C125A: the “polymerase ribozyme fitness (log ratio)” value was -1.75. The result for U56G A73G U101C A119G U148C reads -4.08; that for U56A G84U, -1.11. Next, U56A G84C: -1.66. The result for C57A G83C C87U U134G U139A U144G reads at most -4.2. As to U55G G83A A115C C123U G136U, the “polymerase ribozyme fitness (log ratio)” value is -2.92.

Take U56G C72U: the “polymerase ribozyme fitness (log ratio)” value is -0.106. As for U56A C123U, the “polymerase ribozyme fitness (log ratio)” value came to 0.128. In the case of C57G C69A, the “polymerase ribozyme fitness (log ratio)” value was -2.56.

As to C57A G59C A60G, the “polymerase ribozyme fitness (log ratio)” value is 0.42. The result for U55A G83A G124A reads -0.748. The result for C57A A64C C129G reads at most -4.2; that for C54U U135A G136C, -3.76.

In the case of C57G A113G, the “polymerase ribozyme fitness (log ratio)” value was -3.44.

Regarding U56A G74A A138G, the “polymerase ribozyme fitness (log ratio)” value was at most -4.2. For the variant C57G A73C C87G A97G U101G U130C, the “polymerase ribozyme fitness (log ratio)” value was at most -4.2. Next, C57A C79U C93U A98U A147U: -3.03; U56A G58C U61A G86U C87A G100U: at most -4.2. On to U55A U56A A97U, for which the “polymerase ribozyme fitness (log ratio)” value was -0.565. Next, C57A C95A C96U G141A: -4.07; U55A A91U G136A: at most -4.2.

C57G G70A C87U C123A: the “polymerase ribozyme fitness (log ratio)” value is at most -4.2. Next, U56A U61A: -1.51. The result for U56A U61G reads -1.7; that for C57G G58U C93A, -1.39. Next, U55G G59A: -2.25; U55G G58C: -0.558; U55A G141C: -0.199. In the case of U55C C72U A150U, the “polymerase ribozyme fitness (log ratio)” value is 0.059. The result for U55A C85U reads -0.644; that for U56G A60G G84A, -0.664. The result for U55A A98U reads -0.0691; that for C57G C85G, -1.95; that for U55A C125A G141A, -4.12. Next, U56G G92U: -2.1; C57A A122C: -0.0129; U55G U56A C93A C114A: at most -4.2.

As to C57A G128C, the “polymerase ribozyme fitness (log ratio)” value was -2.62. As to U56A C93U U127C, the “polymerase ribozyme fitness (log ratio)” value was -2.73. Next, C54U U56A A60U G70U A115G A150C: at most -4.2. As for U55A C105G, the “polymerase ribozyme fitness (log ratio)” value was -1.73. The result for U55A C105A reads -0.692. Next, U55G A89U C132G: -3.98; C54U U90C G94A C131U: at most -4.2. Next, U55C U127A U139G: -3.31. U56G G65C G67C C85A C93G C118U C149A: the “polymerase ribozyme fitness (log ratio)” value was at most -4.2. For the variant U55A C95U, the “polymerase ribozyme fitness (log ratio)” value is -0.137. Next, C54U U55A G86A C116G: -2.2.
